This note sets out measurements from patent US20260092093A1.

Assay [1] addresses T1, hIL-18 receptor (hIL-18Rα and hIL-18Rβ) (human) (UniProt Q13478).
T1 sequence (looked up) 1: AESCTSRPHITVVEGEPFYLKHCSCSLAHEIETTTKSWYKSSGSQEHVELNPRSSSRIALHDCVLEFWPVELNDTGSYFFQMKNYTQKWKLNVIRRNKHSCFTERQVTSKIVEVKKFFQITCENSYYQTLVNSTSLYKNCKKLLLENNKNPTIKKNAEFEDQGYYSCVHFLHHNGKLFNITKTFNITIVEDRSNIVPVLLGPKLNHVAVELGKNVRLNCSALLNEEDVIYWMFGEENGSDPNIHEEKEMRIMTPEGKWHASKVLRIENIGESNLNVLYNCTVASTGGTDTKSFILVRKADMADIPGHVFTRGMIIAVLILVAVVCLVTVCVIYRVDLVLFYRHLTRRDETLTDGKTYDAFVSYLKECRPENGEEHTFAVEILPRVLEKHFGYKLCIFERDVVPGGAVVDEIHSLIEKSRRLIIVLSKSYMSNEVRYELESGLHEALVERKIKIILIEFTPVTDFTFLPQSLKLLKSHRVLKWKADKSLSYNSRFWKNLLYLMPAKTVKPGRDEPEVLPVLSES
T1 sequence (looked up) 2: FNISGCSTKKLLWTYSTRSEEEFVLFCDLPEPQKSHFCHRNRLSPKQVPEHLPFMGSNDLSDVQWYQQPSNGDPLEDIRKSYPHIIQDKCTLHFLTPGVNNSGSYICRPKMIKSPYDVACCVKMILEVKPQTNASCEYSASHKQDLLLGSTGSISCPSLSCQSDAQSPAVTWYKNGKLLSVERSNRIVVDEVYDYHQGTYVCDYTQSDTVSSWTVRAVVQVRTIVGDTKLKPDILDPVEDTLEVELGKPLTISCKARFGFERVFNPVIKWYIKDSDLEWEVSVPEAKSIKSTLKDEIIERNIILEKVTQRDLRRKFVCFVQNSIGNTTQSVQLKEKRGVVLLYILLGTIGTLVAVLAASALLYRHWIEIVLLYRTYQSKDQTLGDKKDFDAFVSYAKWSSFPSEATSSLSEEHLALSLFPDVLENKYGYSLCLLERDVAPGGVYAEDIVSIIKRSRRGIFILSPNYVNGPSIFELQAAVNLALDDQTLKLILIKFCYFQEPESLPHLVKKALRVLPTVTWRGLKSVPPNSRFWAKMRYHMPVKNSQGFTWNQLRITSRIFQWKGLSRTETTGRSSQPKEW
Put plainly: cell-based or functional assay.

Assay [2] has as its target hIL-18BP-hFc (human) (UniProt O95998). Kind of assay: cell-based or functional assay.

Sequence of hIL-18BP-hFc (human) (O95998 31-194 limits assumed): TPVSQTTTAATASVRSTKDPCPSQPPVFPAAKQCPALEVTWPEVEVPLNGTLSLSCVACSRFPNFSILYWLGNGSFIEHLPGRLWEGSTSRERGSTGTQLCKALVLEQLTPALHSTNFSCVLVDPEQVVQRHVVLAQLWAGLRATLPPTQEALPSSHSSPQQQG
Sequence of wild-type human IL-18 (Q14116 37-193 limits assumed): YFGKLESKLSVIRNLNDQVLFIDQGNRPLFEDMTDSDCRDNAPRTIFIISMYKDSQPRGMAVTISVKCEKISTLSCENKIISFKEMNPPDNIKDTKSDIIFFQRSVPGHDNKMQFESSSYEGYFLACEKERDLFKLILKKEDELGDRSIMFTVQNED

In assay [1], “wild-type human IL-18 (from UniProt Q14116 37-193) (ligand)” registered an EC50 (nM), PBMC assay (hIFNγ release) of 0.17 nM and an EC50 (nM), in vitro IL-18 Receptor Mediated Signaling Assay of 0.066 nM. For the same substance, in assay [2], the EC50 (nM) + 1 µg/ml hIL-18BP-hFc, in vitro IL-18 Receptor Mediated Signaling Assay is 8.2 nM; the EC50 (nM) in the Presence of 1 µg/mL hIL-18BP-hFc, PBMC assay (hIFNγ release) amounted to 5.9 nM; the EC50 Fold Change (+BP/-BP), PBMC assay (hIFNγ release) was 34.7 fold; the EC50 Fold Change (+BP/-BP), hIL-18 reporter assay turned out to be 83.3 fold.
